Measured values reported in article PMC12216489, “Deep mutational scanning identifies Cas1 and Cas2 variants that enhance type II-A CRISPR-Cas spacer acquisition” (Nature Communications, 2025).
Numbering of substitutions follows the chain as printed. Names and notes keep the numbering of the source. Values belong to the binder of their own block, whether it stands above or below them.

Key:
Test in all cases: SEC; analytical SEC on Superdex 200 Increase 10/300 GL in SEC buffer (20 mM HEPES pH 7.5, 500 mM NaCl, 5% v/v glycerol, 5 mM DTT) at 4 °C; Cas1 variants (15-100 μM, 2 equiv.) mixed with Cas2 variants (1 equiv.), incubated at 4 °C for 1 h before injection; fractions analysed by SDS-PAGE
Settings in all cases: both partners purified
[1] = molecular target: T1, Streptococcus pyogenes Cas1 (S. pyogenes, UniProt Q99ZW1 1-289)
T1 construct: Cas1 of the Streptococcus pyogenes SF370 type II-A CRISPR-Cas locus; One of the plasmids pRAH246, pRAH248 or pRAH249; which plasmid holds which variant is in Supplementary Data 2; Fractions with cleaved Cas1 were pooled after SUMO protease digestion; also called wild-type Cas1; source: E. coli Rosetta 2(DE3) BL21, purified (Ni-NTA, SUMO protease, HiTrap Heparin, Superdex 200)
T1 sequence (looked up): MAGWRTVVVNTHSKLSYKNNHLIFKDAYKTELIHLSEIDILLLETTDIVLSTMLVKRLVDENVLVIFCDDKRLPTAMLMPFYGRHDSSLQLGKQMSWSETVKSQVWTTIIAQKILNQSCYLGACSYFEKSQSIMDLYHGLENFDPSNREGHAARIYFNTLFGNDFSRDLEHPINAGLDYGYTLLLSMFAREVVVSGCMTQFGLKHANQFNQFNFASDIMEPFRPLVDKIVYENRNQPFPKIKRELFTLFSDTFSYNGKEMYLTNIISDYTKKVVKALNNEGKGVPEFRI

[2] = molecular target: T2, Streptococcus pyogenes Cas1 R5A (S. pyogenes, UniProt Q99ZW1 1-289, R5A)
T2 construct: Cas1 of the Streptococcus pyogenes SF370 type II-A CRISPR-Cas locus with R5A; One of the plasmids pRAH246, pRAH248 or pRAH249; which plasmid holds which variant is in Supplementary Data 2; source: E. coli Rosetta 2(DE3) BL21, purified (Ni-NTA, SUMO protease, HiTrap Heparin, Superdex 200)
T2 sequence (looked up): T1 sequence (looked up) with R5A

[3] = molecular target: T3, Streptococcus pyogenes Cas1 R5K (S. pyogenes, UniProt Q99ZW1 1-289, R5K)
T3 construct: Cas1 of the Streptococcus pyogenes SF370 type II-A CRISPR-Cas locus with R5K; One of the plasmids pRAH246, pRAH248 or pRAH249; which plasmid holds which variant is in Supplementary Data 2; source: E. coli Rosetta 2(DE3) BL21, purified (Ni-NTA, SUMO protease, HiTrap Heparin, Superdex 200)
T3 sequence (looked up): T1 sequence (looked up) with R5K

- binding result [1]: binds
- binding result [2]: binds
- binding result [3]: binds
B1: Streptococcus pyogenes Cas2 (natural protein, S. pyogenes, UniProt Q99ZW0 1-113, looked up)
chain: MSYRYMRMILMFDMPTDTAEERKAYRKFRKFLLSEGFIMHQFSIYSKLLLNNTANNAMIGRLREHNPNKGNITLLTVTEKQFARMIYLHGERNNCIANSDERLVFLGEAFDES
notes: Cas2 of the Streptococcus pyogenes SF370 type II-A CRISPR-Cas locus; One of the plasmids pRAH247, pRAH272 or pRAH273; which plasmid holds which variant is in Supplementary Data 2; Same protocol as for Cas1; also called wild-type Cas2; source: E. coli Rosetta 2(DE3) BL21, purified (Ni-NTA, SUMO protease, HiTrap Heparin, Superdex 200)

- binding result [1]: binds
B2: Streptococcus pyogenes Cas2 Y5F (natural protein, S. pyogenes, UniProt Q99ZW0 1-113, looked up)
chain: B1 chain with Y5F
notes: Cas2 of the Streptococcus pyogenes SF370 type II-A CRISPR-Cas locus with Y5F; One of the plasmids pRAH247, pRAH272 or pRAH273; which plasmid holds which variant is in Supplementary Data 2; source: E. coli Rosetta 2(DE3) BL21, purified (Ni-NTA, SUMO protease, HiTrap Heparin, Superdex 200)

- binding result [1]: binds
B3: Streptococcus pyogenes Cas2 Y5A (natural protein, S. pyogenes, UniProt Q99ZW0 1-113, looked up)
chain: B1 chain with Y5A
notes: Cas2 of the Streptococcus pyogenes SF370 type II-A CRISPR-Cas locus with Y5A; One of the plasmids pRAH247, pRAH272 or pRAH273; which plasmid holds which variant is in Supplementary Data 2; source: E. coli Rosetta 2(DE3) BL21, purified (Ni-NTA, SUMO protease, HiTrap Heparin, Superdex 200)
